From publication PMC11406491, “A Plasmonic Nanoledge Array Sensor for Selective Detection of Cardiovascular Disease Biomarkers in Human Whole Blood” come the findings set out here.

The target in data set [1] is cardiac troponin I (cTnI) (human, UniProt P19429 2-210). The data set is described as follows: SPR (transmitted, EOT peak shift); PBS; LOD 0.079 ng/mL; Aptamer immobilized on gold nanoledge chip (cystamine/glutaraldehyde, PEG and glycine blocked); PBS, human serum or whole blood; 20 min incubation; room temperature (stated for stability test); pH and salt not given. To be noted: protein: commercial.
cardiac troponin I (cTnI), sequence (P19429 2-210): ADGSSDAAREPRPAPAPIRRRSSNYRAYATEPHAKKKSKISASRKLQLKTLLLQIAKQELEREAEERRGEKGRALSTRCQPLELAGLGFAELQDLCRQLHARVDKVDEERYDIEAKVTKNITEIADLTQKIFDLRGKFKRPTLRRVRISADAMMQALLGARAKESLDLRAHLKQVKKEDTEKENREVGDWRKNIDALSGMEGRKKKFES

In data set [2] the target is T1, myoglobin (UniProt P02144 2-154).
T1 sequence: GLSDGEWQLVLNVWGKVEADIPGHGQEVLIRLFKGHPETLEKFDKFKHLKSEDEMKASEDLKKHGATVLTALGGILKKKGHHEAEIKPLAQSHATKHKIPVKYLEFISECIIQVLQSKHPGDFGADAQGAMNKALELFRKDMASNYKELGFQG
The data set is described as follows: SPR (transmitted, EOT peak shift); up to 125 ng/mL; minimal shift, described as poor binding; human serum (Methods) or PBS (Fig S8); Aptamer immobilized on gold nanoledge chip (cystamine/glutaraldehyde, PEG and glycine blocked); PBS, human serum or whole blood; 20 min incubation; room temperature (stated for stability test); pH and salt not given. The settings on record: protein: commercial.

As to CGTGCAGTACGCCAACCTTTCTCATGCGCTGCCCCTCTTA (ssDNA, 5' amino modifier C6 (5AmMC6)) [cTnI-specific aptamer], the figures for the binding result in data set [1] and in data set [2] were “binds” and “no binding”, respectively.
